Reference: US20050124678 (Paratek Pharmaceuticals, Inc., published 2005)

Assays:
SoxS = SoxS (Escherichia coli, UniProt P0A9E2 P0A9E2:1-107)
Rob = Rob (Escherichia coli, UniProt P0ACI0 SEQ:1-289)
MarA = biological target: T1, MarA (Escherichia coli, UniProt P0ACH5 P0ACH5:1-127)
T1 sequence: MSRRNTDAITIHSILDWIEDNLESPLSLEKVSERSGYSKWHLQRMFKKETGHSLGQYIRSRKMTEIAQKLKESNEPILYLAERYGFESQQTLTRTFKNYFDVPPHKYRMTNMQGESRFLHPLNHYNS

Measured: binding result

Chain of SoxS (P0A9E2 whole entry, one chain of several): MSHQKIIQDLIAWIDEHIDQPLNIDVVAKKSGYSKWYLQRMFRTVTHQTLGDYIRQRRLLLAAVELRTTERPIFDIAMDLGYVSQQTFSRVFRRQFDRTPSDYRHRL
Chain of Rob (P0ACI0 whole entry): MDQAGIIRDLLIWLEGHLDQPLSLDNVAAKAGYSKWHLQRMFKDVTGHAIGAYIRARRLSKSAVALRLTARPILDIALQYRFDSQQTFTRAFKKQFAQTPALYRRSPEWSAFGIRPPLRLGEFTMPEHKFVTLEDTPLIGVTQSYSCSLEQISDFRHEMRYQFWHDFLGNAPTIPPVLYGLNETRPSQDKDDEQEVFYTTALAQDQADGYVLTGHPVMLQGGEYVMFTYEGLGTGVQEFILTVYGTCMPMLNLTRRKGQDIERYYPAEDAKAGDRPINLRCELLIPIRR

B1: biotinylated target DNA (SEQ ID NO. 5) (dsDNA)
DNA 1: CCGATTTAGCAAAACGTGGCATCGGTC
DNA 2: GACCGATGCCACGTTTTGCTAAATCGG
binds: all assays above
